{"source": "patent US11897928B2", "about": "“Conjugates for delivering an anti-cancer agent to nerve cells, methods of use and methods of making thereof” (Manzanita Pharmaceuticals, Inc., priority 2018, dated 2024)", "molecules": {"B1": {"name": "800-rhBDNF: Dyomics Near InfraRed (NIR) dye 800 conjugated to rhBDNF (conjugate, UniProt P23560 19-247, looked up)", "Neurotrophic factor BDNF …": "APMKEANIRGQGGLAYPGVRTHGTLESVNGPKAGSRGLTSLADTFEHVIEELLDEDQKVRPNEENNKDADLYTSRVMLSSQVPLEPPLLFLLEEYKNYLDAANMSMRVRRHSDPARRGELSVCDSISEWVTAADKKTAVDMSGGTVTVLEKVPVSKGQLKQYFYETKCNPMGYTKEGCRGIDKRHWNSQCRTTQSYVRALTMDSKKRIGWRFIRIDTSCVCTLTIKRGR", "modifications": "Dyomics 800 NIR dye", "notes": "Dyomics Near InfraRed (NIR) dye 800 conjugated to rhBDNF"}}, "key": {"[1]": {"assay": "Intracisternal delivery of 800-rhBDNF in naïve rats (Spectralis IRAF/IR imaging, NIR microscopy and HE histopathology)", "type": "in vivo", "experimental": "A Dyomics Near InfraRed (NIR) dye 800 was conjugated to rhBDNF (800-rhBDNF) as set forth above. […] Three single doses of 800-rhBDNF were injected midline intracisternally in naïve rats (n=4; n=3 800-rhBDNF, n=1 control, unmodified dye 800 carboxylic acid form). Three test doses of 800-rhBDNF were selected: lowest (5 μL for syringe, at 0.20 concentration=1 μg study article), mid-, and highest (30 μL; upper volume constraint is 50 μL). Images at three timepoints were collected, just prior to treatment, 15 min, and 6 h using two imaging modalities in both eyes (left eye, oculus sinister, OS; right eye, oculus dexter, OD). Imaging and histopathology methods were used to detect 800-rhBDNF in the optic chiasm or optic nerve head.\nTwo seetings were selected on the Heidelberg Spectralis®. Infrared autofluorescence IRAF; or ICG, to detect indocyanine green, an NIR dye uses a diode laser with a wavelength of 790 nm in the NIR spectrum. A barrier filter at 830 nm separates excitation and fluorescence light and thus, IRAF/ICG detects near IR fluorescence in 800-rhBDNF. […] After dissection, tissues were cryostatted to preserve NIR 800. Two directly contiguous sets of slides were produced from two sections of optic nerve, optic chiasm from brain tissue, and optic nerve head from eyes. HE stain.\nHematoxylin and eosin (HE) stain was applied to one slide set to reveal nerve tissue. NIR microscopy. Using an Olympus IX73 inverted 2-deck microscope with motorized filter cube turret; objective turret; Proscan XYZ stage; a 75 W Xenon burner; and DP80 Dual CCD 12.7 MP camera, NIR images are acquired in two channels at 4× in the FITC channel (detects auto-fluorescence) and ICG channel. The morphology of HE stained slides to those with FITC+NIR images was compared to confirm that NIR 800 had localized to in nerve tissue."}, "TrkB receptor": {"tested_on": "TrkB receptor", "assay": "Bioassay in RGC cultures for TrkB receptor binding", "type": "cell-based"}}}
{"molecule": "B1", "values": [{"measurement": "localized irritation in the retinas", "setting": "[1]; intracisternal injection, live imaging at baseline, 15 min and 6 h", "result": "No localized irritation in the retinas was observed"}, {"measurement": "distribution of midline injection (both eyes)", "setting": "[1]; midline intracisternal injection, imaging in OS and OD", "result": "distributed bilaterally"}, {"measurement": "transport of 800 dye from the site of injection", "setting": "[1]; preliminary studies, given intracisternally", "result": "transports 800 dye away from the site of injection, via the optic chiasm, to the optic nerve head"}, {"measurement": "localization of NIR 800 dye in nerve tissue (morphology of NIR microscopy compared to HE stain)", "setting": "[1]; single midline intracisternal injection, histopathology after euthanasia at 6 h, optic chiasm and optic nerve head", "result": "localizes the 800 dye and moves the 800 dye away from the injection site via optic chiasm to optic nerve head"}, {"measurement": "TrkB receptor binding following synthesis", "setting": "TrkB receptor", "result": "TrkB receptor binding remains intact"}]}
